Key:
[1] = target: TOX (UniProt Q66JW3); test: anti-TOX IP from EL4 nuclear extract, LC-MS/MS, MiST analysis
[2] = target: TOX (UniProt Q66JW3); test: anti-TOX IP from EL4 cells, mass spectrometry, MiST analysis

Sequence of TOX (Q66JW3 whole entry): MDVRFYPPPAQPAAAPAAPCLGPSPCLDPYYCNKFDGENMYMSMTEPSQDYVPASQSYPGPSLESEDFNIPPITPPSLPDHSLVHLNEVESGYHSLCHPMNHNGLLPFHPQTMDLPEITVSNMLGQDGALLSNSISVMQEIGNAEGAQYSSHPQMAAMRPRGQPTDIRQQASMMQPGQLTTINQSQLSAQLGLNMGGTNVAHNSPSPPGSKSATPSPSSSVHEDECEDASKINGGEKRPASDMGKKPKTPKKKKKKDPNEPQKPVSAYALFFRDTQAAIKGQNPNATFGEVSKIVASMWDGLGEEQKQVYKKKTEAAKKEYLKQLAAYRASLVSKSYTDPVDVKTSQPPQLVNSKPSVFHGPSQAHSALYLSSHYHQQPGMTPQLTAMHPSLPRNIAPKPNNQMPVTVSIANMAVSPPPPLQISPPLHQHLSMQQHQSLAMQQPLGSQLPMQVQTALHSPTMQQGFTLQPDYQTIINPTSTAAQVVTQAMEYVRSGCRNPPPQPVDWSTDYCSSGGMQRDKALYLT

| Substance | Abundance [1] | MiST Score [1] | Reproducibility [1] | Specificity [1] | Abundance [2] | MiST Score [2] | Reproducibility [2] | Specificity [2] |
| --- | --- | --- | --- | --- | --- | --- | --- | --- |
| Luzp1; mFLJ00226 (from UniProt Q8R4U7 2-1068) | 7.26e-06 | 0.792 | 0.856 | 0.77 |  |  |  |  |
| Lztfl1 (from UniProt Q9JHQ5 1-299) | 6.33e-05 | 0.776 | 0.894 | 0.73 |  |  |  |  |
| Nmt1 (from UniProt O70310 1-496) (enzyme) |  |  |  |  | 6.96e-06 | 0.821 | 0.948 | 0.772 |
| Numa1 (from UniProt E9Q7G0 1-2094) | 1.43e-06 | 0.787 | 0.775 | 0.799 |  |  |  |  |
| Nup98 (from UniProt Q6PFD9 1-880) |  |  |  |  | 5.87e-07 | 0.803 | 0.381 | 1 |
| Otud4 (from UniProt B2RRE7 1-1107) (enzyme) |  |  |  |  | 9.24e-07 | 0.818 | 0.993 | 0.747 |
| Parp2 (from UniProt O88554 1-559) (enzyme) |  |  |  |  | 2.87e-06 | 0.827 | 0.46 | 1 |
| Pds5a (from UniProt Q6A026 1-1332) |  |  |  |  | 1.76e-06 | 0.824 | 0.865 | 0.813 |
| Pds5b (from UniProt Q4VA53 1-1446) |  |  |  |  | 2.47e-06 | 0.807 | 0.845 | 0.797 |
| Pfkl (from UniProt P12382 2-780) (enzyme) | 3.37e-06 | 0.768 | 0.501 | 0.894 |  |  |  |  |
| Ppan (from UniProt Q91YU8 1-470) | 4.7e-05 | 0.792 | 0.959 | 0.723 |  |  |  |  |
| Ptpn11 (from UniProt P35235 2-593) (enzyme) |  |  |  |  | 4.22e-05 | 0.808 | 0.396 | 1 |
| Rars (from UniProt Q9D0I9 1-660) (enzyme) |  |  |  |  | 4.81e-06 | 0.797 | 0.98 | 0.721 |
| Rftn1 (from UniProt Q6A0D4 2-554) |  |  |  |  | 4.96e-06 | 0.8 | 0.37 | 1 |
| Rpa2 (from UniProt Q62193 1-270) |  |  |  |  | 0.000292 | 0.814 | 0.977 | 0.747 |
| Rpl14; Rpl14-ps1 (from UniProt Q9CR57 1-217) |  |  |  |  | 0.00405 | 0.797 | 0.997 | 0.714 |

| Substance | Abundance [1] | MiST Score [1] | Reproducibility [1] | Specificity [1] | Abundance [2] | MiST Score [2] | Reproducibility [2] | Specificity [2] |
| --- | --- | --- | --- | --- | --- | --- | --- | --- |
| Rps23 (from UniProt P62267 1-143) |  |  |  |  | 0.00479 | 0.807 | 0.997 | 0.728 |
| Sfxn1 (from UniProt Q99JR1 2-322) |  |  |  |  | 3.71e-05 | 0.827 | 0.954 | 0.777 |
| Srsf5 (from UniProt O35326 1-269) |  |  |  |  | 0.000505 | 0.807 | 0.996 | 0.729 |
| Ssb (from UniProt P32067 1-415) |  |  |  |  | 3.74e-05 | 0.809 | 0.807 | 0.817 |
| Stau1 (from UniProt Q9Z108 1-487) |  |  |  |  | 1.96e-05 | 0.825 | 0.951 | 0.776 |
| Supt16; Supt16h (from UniProt Q920B9 2-1047) |  |  |  |  | 4.95e-06 | 0.818 | 0.8 | 0.833 |
| Tbl1x (from UniProt Q9QXE7 2-527) |  |  |  |  | 5.34e-06 | 0.825 | 0.453 | 1 |
| Tdrd3 (from UniProt Q91W18 1-743) |  |  |  |  | 8.62e-06 | 0.815 | 0.627 | 0.907 |
| Tfip11 (from UniProt Q9ERA6 1-838) |  |  |  |  | 5.43e-06 | 0.826 | 0.972 | 0.767 |
| Tpx2 (from UniProt A2APB8 1-745) |  |  |  |  | 1.91e-05 | 0.805 | 0.992 | 0.727 |
| Tra2b (from UniProt P62996 2-288) |  |  |  |  | 3.65e-05 | 0.803 | 0.381 | 1 |
| Wrnip1 (from UniProt Q91XU0 1-660) |  |  |  |  | 3.59e-06 | 0.812 | 0.41 | 1 |
| Yars (from UniProt Q91WQ3 1-528) (enzyme) |  |  |  |  | 2.51e-06 | 0.802 | 0.379 | 1 |
| Ythdf1 (from UniProt P59326 2-559) |  |  |  |  | 3.5e-05 | 0.811 | 0.833 | 0.809 |
| Zc3h11a (from UniProt Q6NZF1 1-792) |  |  |  |  | 1.22e-05 | 0.801 | 0.957 | 0.737 |

Source: patent US20210071139A1
